Data: article PMC5655542

Target: H. polygyrus Alarmin Release Inhibitor (HpARI), recombinant mature 6-His and Myc-tagged protein (Heligmosomoides polygyrus)
Assay: SPR; BIAcore T200; HpARI captured via its 6-His tag on a Ni2+-NTA chip to 400 RU; cytokine injected (mIL-33 6.2-167 nM, hIL-33 0.062-1.67 μM); 25°C; 10 mM NaH2PO4 pH 7.5, 150 mM NaCl, 50 μM EDTA, 0.05% surfactant P20; single kinetic titration, global 1:1 fit

Sequence of H. polygyrus Alarmin Release Inhibitor (HpARI), recombinant mature 6-His and Myc-tagged protein (Heligmosomoides polygyrus) (A0A3P7XL18 63-297): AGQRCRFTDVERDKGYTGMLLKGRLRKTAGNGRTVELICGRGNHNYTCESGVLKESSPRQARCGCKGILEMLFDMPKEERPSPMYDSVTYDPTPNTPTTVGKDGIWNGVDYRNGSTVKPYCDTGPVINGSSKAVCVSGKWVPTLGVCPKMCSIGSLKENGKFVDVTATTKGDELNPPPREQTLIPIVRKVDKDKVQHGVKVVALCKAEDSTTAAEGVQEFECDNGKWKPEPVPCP

B1: recombinant human IL-33, untreated (reduced, active form) (ligand)
chain: MKPKMKYSTNKISTAKWKNTASKALCFKLGKSQQKAKEVCPMYFMKLRSGLMIKKEACYFRRETTKRPSLKTGRKHKRHLVLAACQQQSTVECFAFGISGVQKYTRALHDSSITGISPITEYLASLSTYNDQSITFALEDESYEIYVEDLKKDEKKDKVLLSYYESQHPSNESGDGVDGKMLMVTLSPTKDFWLHANNKEHSVELHKCEKPLPDQAFFVLHNMHSNCVSFECKTDPGVFIGVKDNHLALIKVDSSENLCTENILFKLSET
- Kd: 260 nM
- stoichiometry N: 1
